To fix the notation:
B4: PPARα-ligand binding domain (amino acids 196–468) (domain or fragment, human, UniProt Q07869 196-468, looked up)
chain: EDSETADLKSLAKRIYEAYLKNFNMNKVKARVILSGKASNNPPFVIHDMETLCMAEKTLVAKLVANGIQNKEAEVRIFHCCQCTSVETVTELTEFAKAIPGFANLDLNDQVTLLKYGVYEAIFAMLSSVMNKDGMLVAYGNGFITREFLKSLRKPFCDIMEPKFDFAMKFNALELDDSDISLFVAAIICCGDRPGLLNVGHIEKMQEGIVHVLRLHLQSNHPDDIFLFPKLLQKMADLRQLVTEHAQLVQIIKKTESDAALHPLLQEIYRDMY
modifications: biotinylated for biolayer interferometry; 15N-labeled for NMR
notes: The His tag is used for capture in the pulldown; also called PPARα-LBD; wild-type PPARα; source: E. coli BL21 (DE3)-CodonPlus, purified; not shown: His6, N-terminal, kept
B5: PPARγ-ligand binding domain (amino acids 204–477) (domain or fragment, human, UniProt P37231-2 204-477, looked up)
chain: LNPESADLRALAKHLYDSYIKSFPLTKAKARAILTGKTTDKSPFVIYDMNSLMMGEDKIKFKHITPLQEQSKEVAIRIFQGCQFRSVEAVQEITEYAKSIPGFVNLDLNDQVTLLKYGVHEIIYTMLASLMNKDGVLISEGQGFMTREFLKSLRKPFGDFMEPKFEFAVKFNALELDDSDLAIFIAVIILSGDRPGLLNVKPIEDIQDNLLQALELQLKLNHPESSQLFAKLLQKMTDLRQIVTEHVQLLQVIKKTETDMSLHPLLQEIYKDLY
modifications: biotinylated for biolayer interferometry; 15N-labeled for NMR
notes: The His tag is used for capture in the pulldown; also called PPARγ-LBD; wild-type PPARγ; source: E. coli BL21 (DE3)-CodonPlus, purified; not shown: His6, N-terminal, kept

What all share (conditions): both partners purified
Assay [1] has as its target B5. Nature of the assay: BLI; competition: PPARα/γ-LBD and β-arrestin-1 with or without increasing amounts of RXRα-LBD (Supplementary Fig. 5b,c). (In general: Biolayer interferometry detects binding as a change in optical thickness at a sensor tip.)
Assay [2] has as its target B4. Described as above.
Assay [3] deals with B4. Kind of assay: BLI; RXRα-LBD with PPARα/γ-LBD; the tables and the methods name PPAR-LBD as ligand and RXRα-LBD as analyte, the legend of Fig. 2e,f says 50 μg/ml RXRα-LBD loaded on SAs with serial dilutions of PPARα/γ-LBD; 25 °C; 2:1 heterogeneous ligand model and steady-state analysis.
Assay [4] addresses B5. The assay is described as above.
In assay [5] the target is B5. Nature of the assay: BLI; Octet Red 96; 50 μg/ml biotinylated PPARα-LBD or PPARγ-LBD (or their mutants) immobilised on streptavidin biosensors; analyte β-arrestin-1, βarr1M or peptides in solution (single 2 μM or serial dilutions, β-arrestin-1 0.5–32 μM); 25 °C; 2:1 heterogeneous ligand model and steady-state analysis.
Assay [6] has as its target B4. Described as above.
Assay [7] addresses B5. Described as above. The source holds these as a separate data set.
The target in assay [8] is B4. Described as above. The source holds these as a separate data set.
Assay [9] deals with T1, β-arrestin-1 (recombinant rattus β-arrestin-1) (rat, UniProt P29066 1-418).
T1 construct: β-arrestin-1, rat (rattus), recombinant; also called βarr1; wild-type β-arrestin-1
The assay is described as above.

Assay [10] addresses T1, β-arrestin-1 (recombinant rattus …). Described as above. This is another data set of the same source.
Assay [11] deals with T2, β-arrestin-1 double mutant with L100A and L104A (rat, UniProt P29066 1-418, L100A | L104A).
T2 construct: β-arrestin-1 with L100A and L104A; also called βarr1M; source: purified
Described as above.

The term IC50 denotes the concentration that inhibits the measured activity by half. Read a high IC50 as a need for much substance. The term Kd denotes the concentration at which binding is half-saturated.

T1 sequence (P29066 whole entry): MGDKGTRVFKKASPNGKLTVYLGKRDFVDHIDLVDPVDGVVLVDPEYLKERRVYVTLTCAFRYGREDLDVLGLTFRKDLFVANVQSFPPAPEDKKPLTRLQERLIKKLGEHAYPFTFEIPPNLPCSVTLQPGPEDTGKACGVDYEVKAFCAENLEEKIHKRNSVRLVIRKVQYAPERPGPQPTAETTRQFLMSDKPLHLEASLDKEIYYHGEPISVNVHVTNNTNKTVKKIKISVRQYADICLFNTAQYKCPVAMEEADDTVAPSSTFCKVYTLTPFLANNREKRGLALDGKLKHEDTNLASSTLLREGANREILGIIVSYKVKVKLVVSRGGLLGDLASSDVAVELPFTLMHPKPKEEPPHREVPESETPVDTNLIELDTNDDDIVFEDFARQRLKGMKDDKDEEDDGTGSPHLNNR
T2 sequence (P29066 whole entry L100A/L104A): as the sequence (P29066 whole entry) above, with L100A, L104A counted along it

B1: 9-cis-retinoic acid receptor α-ligand binding domain (amino acids 196–435) (domain or fragment, human, UniProt P19793 223-462, looked up)
chain: TSSANEDMPVERILEAELAVEPKTETYVEANMGLNPSSPNDPVTNICQAADKQLFTLVEWAKRIPHFSELPLDDQVILLRAGWNELLIASFSHRSIAVKDGILLATGLHVHRNSAHSAGVGAIFDRVLTELVSKMRDMQMDKTELGCLRAIVLFNPDSKGLSNPAEVEALREKVYASLEAYCKHKYPEQPGRFAKLLLRLPALRSIGLKCLEHLFFFKLIGDTPIDTFLMEMLEAPHQMT
notes: also called RXRα-LBD; source: E. coli BL21 (DE3)-CodonPlus, purified
Consider B1, for which the IC50 in [1] worked out at 850 nM; in assay [2], 880 nM. The Kd in assay [3] worked out at 29 nM; in assay [4], 71 nM.
In the case of PAPEDKKPLTRLQERLIKKLG [synthetic β-arrestin-1 peptide harboring the LQERLIKKL sequence], the maximum response in assay [5] came to 0.22 nm. The maximum response in assay [6] turned out to be 0.27 nm. Further, in assay [7], the “KD1 (2:1 HL model)” value was determined as 557 µM, the “KD2 (2:1 HL model)” value is 521 µM, binding was characterised by a dissociation constant (Kd) of 560000 nM and the “koff1 (2:1 HL model)” value amounted to 0.00323 S^−1. In addition, in assay [7], the “koff2 (2:1 HL model)” value came to 0.132 S^−1, the “kon1 (2:1 HL model)” value turned out to be 5.8 M^−1S^−1 and the “kon2 (2:1 HL model)” value worked out at 2.53 M^−1S^−1. Besides, in assay [8], the “KD1 (2:1 HL model)” value came out at 42 µM, the “KD2 (2:1 HL model)” value worked out at 60.3 µM, the Kd amounted to 56000 nM and the “koff1 (2:1 HL model)” value was determined as 0.000907 S^−1. Besides, in [8], the “koff2 (2:1 HL model)” value stood at 0.161 S^−1, the “kon1 (2:1 HL model)” value is 21.6 M^−1S^−1 and the “kon2 (2:1 HL model)” value is 2660 M^−1S^−1.

B2: PPARα-LBD D371A (domain or fragment, human, UniProt Q07869 196-468, looked up)
chain: EDSETADLKSLAKRIYEAYLKNFNMNKVKARVILSGKASNNPPFVIHDMETLCMAEKTLVAKLVANGIQNKEAEVRIFHCCQCTSVETVTELTEFAKAIPGFANLDLNDQVTLLKYGVYEAIFAMLSSVMNKDGMLVAYGNGFITREFLKSLRKPFCDIMEPKFDFAMKFNALELADSDISLFVAAIICCGDRPGLLNVGHIEKMQEGIVHVLRLHLQSNHPDDIFLFPKLLQKMADLRQLVTEHAQLVQIIKKTESDAALHPLLQEIYRDMY
notes: also called PPARα M2; source: E. coli BL21 (DE3)-CodonPlus, purified
As to B2, in assay [9], the dissociation constant (Kd) turned out to be 4100 nM.

B3: PPARγ-LBD L311G/N312G (domain or fragment, human, UniProt P37231-2 204-477, looked up)
chain: LNPESADLRALAKHLYDSYIKSFPLTKAKARAILTGKTTDKSPFVIYDMNSLMMGEDKIKFKHITPLQEQSKEVAIRIFQGCQFRSVEAVQEITEYAKSIPGFVNLDGGDQVTLLKYGVHEIIYTMLASLMNKDGVLISEGQGFMTREFLKSLRKPFGDFMEPKFEFAVKFNALELDDSDLAIFIAVIILSGDRPGLLNVKPIEDIQDNLLQALELQLKLNHPESSQLFAKLLQKMTDLRQIVTEHVQLLQVIKKTETDMSLHPLLQEIYKDLY
notes: also called PPARγ M1; source: E. coli BL21 (DE3)-CodonPlus, purified
B3: in assay [10], the Kd worked out at 1900 nM.
Regarding B4, the Kd in assay [9] was found to be 3600 nM; in assay [11], 3900 nM.
For the molecule B5, the Kd in assay [10] came to 1400 nM.

B6: PPARγ-LBD D380A (domain or fragment, human, UniProt P37231-2 204-477, looked up)
chain: LNPESADLRALAKHLYDSYIKSFPLTKAKARAILTGKTTDKSPFVIYDMNSLMMGEDKIKFKHITPLQEQSKEVAIRIFQGCQFRSVEAVQEITEYAKSIPGFVNLDLNDQVTLLKYGVHEIIYTMLASLMNKDGVLISEGQGFMTREFLKSLRKPFGDFMEPKFEFAVKFNALELADSDLAIFIAVIILSGDRPGLLNVKPIEDIQDNLLQALELQLKLNHPESSQLFAKLLQKMTDLRQIVTEHVQLLQVIKKTETDMSLHPLLQEIYKDLY
notes: also called PPARγ M2; source: E. coli BL21 (DE3)-CodonPlus, purified
B6: the Kd in assay [10] stood at 1500 nM.

For the origin of these results see paper PMC4908412, “β-arrestin-1 contributes to brown fat function and directly interacts with PPARα and PPARγ” (Scientific Reports, 2016).
